The record followed here is a protein production outcome set (Wang et al. 2014).

The nature of the data set: label from the status in PepcDB records.
For “MWQLLSRLNKNLVLTIPAMMAAGFVFGLVTETGFLKELIIPFTFLMVYPMMVTLKLKKVLEGGDGKAQLFTQFINFAVVPFVAFGLGRLFFADRPYMALGLLLAALVPTSGMTISWTGFARGNLEAAVKMTVVGLILGSIATPFYVQALMGAHVEVDMTGIMKQIAVIVFLPMAVGYATQRYLIAKHGQKGFQEQWAPRFPCLSTLGVLGIVFIAIALKAQAIAARPQDLLAILLPLAILYGINYSLSTVVGRLFLPRGDAIALAYGTVMRNLSIALAVAMNAFGKAGSDAALVIALAYIIQVQSAAWYVKFTGTLFGEAPAPSCPAPRRN”, the protein production result is recorded as “failed”. Next, “MWSFIQKIFKALIIAPLDFITKYFKSFVLLLIVLVFFSAKESAPSAPPNLAKLYLNGAIFSTEDFDKEVDKILKTPSIKGVLLLIDSPGGAVSASVELSEKIADLKQKMPVLAYARGVMASGSYYAGMQASEVYASKASLIGSIGVIFSGANVENLLNKVGVATQGVHAGEYKEIGTFTRAWKPNEKDFLQNLVNEQYQMFVNDVAKARKLDAKDYKDFAEGKVFSAQKALKLKLIDKISTIKQAQDRLMELSKVKKAYWLEKSPMERFIEKATQSATNIITQAFGYQLLMR”: “failed”. Then “MWTTNIIKTPRGKFEYFLKGEGPPLCVTHLYSEYNDNGNTFANPFTDHYSVYLVNLKGCGNSDSAKNDSEYSMTETIKDLEAIREALYINKWGFAGHSAGGMLALVYATEAQESLTKIIVGGAAASKEYASHKDSIYCSKNVKFNRIVSIMNALNDDSTVQEERKALSREWALMSFYSEEKLEEALKLPNSGKTVGNRLNYFRQVEYKDYDVRQKLKFVKIPSFIYCGKHDVQCPYIFSCEIANLIPNATLTKFEESNHNPFVEEIDKFNQFVNDTL”, with “not failed”. Then “MWVKPLREASQGKKEEEIHIKTSSSSSARSLAPLLVLKLIRSLSSSSARLQASQLVLKLLCSSSSSSACPQALQLALKLLCWSSSSSTGPQAPQLVFKLSSSSLSSARLQAPPLNDHLLA”, with “failed”; and “MWVWNMVEIKIVFGSSENMEEIPDNSVHLVVTSPPYYNAPFDFPGLFSSYEEYLNLLRKVGKELMRVLQPGRYACFVTQDVRIEGKLYPIVSDLIHIMVHELGFEYQDKIIWRKPEGYIRISRRSGVLIQHPYPMYYYPDNIYEEVVIFKKPGKFDRSAVPPEIREKSKISISKFQAEKWYLSVWDIKNVLPHEKWSKYTAPFPEELAERLIRLYSYVGETVLDPFLGSGTTCVVSRKLHRNCIGYEIDLELREIIEERLG”, with “failed”. In the case of “MYEFNLVLLLLQQMCVFLVIAWLMSKTRLFIPLMQVTVRLPHKLLCYVTFSIFCIMGTYFGLHIEDSIANTRAIGAVMSGLLGGPVVGGLVGLTGGLHRYSMGGMTALSCMISTIVEGLLGGLVHSVLIRRGRPDKVFSPLTAGAITCVAELVQMLIILLIARPFDDALHLVSNIAAPMMVTNTVGAALFMRILLDKRAMFEKYTSAFSATALKVAASTEGILRQGFNEVNSMKVAQVLYQELDIGAVAITDREKLLAFTGIGDDHHLPGKPISSGYTLKAIETGEVVYADGNEVPYRCSLHPQCKLGSTLVIPLRGENQRVMGTIKLYEAKNRLFSSINRTLGEGIAQLLSAQILAGQYERQKALLTQSEIKLLHAQVNPHFLFNALNTIKAVIRRDSEQASQLVQYLSTFFRKNLKRPSEIVTLADEIEHVNAYLQIEKARFQSRLQVQLDVPSTLSRQKLPAFTLQPIVENAIKHGTSQLLDTGNVAIRARREGQHLMLDIEDNAGLYQPSAGSSGLGMSLVDKRLREHFGDDYGISVACEPDCFTRITLRLPLEEDA”, the protein production result is “failed”. Next, “MYFDSHLHSEGLGFSELVKLKENGIKEVCSLAFFPVKPKYPQTMIDVFRKLTEFEPLRCEAAGVKMHPAVGIHPRCIPPDYEFVLGYLEEGEWVAFGEIGLELVTDEEIEVLKSQLELAKRMDVPCIIHTPRGNKLKATRKTLEILESLDFPADLAVIDHVNFETLDMVLETEYWIGLTVQPGKLSAEDAARIVAEHGPERFMLNSDAGYRDVEITTVAEAAVKIEEAVGREEMEKVARENARKFLRVLELEHHHHHH”: “failed”; “MYFEIYKDAKGEYRWRLKAANHEIIAQGEGYTSKQNCQHAVDLLKSTTAATPVKEVLEHHHHHH”: “not failed”; “MYFLKKIVNLFSSKIESEDNNVKKDDLTQPRKQSPEARKRRNRRIIFWLIILLIIGTIIGVIIYFSVRKEYDNVIVKSAQTEVVNNKKVLYLNTIRPNSTQITRYTIDEDQLLTARVNILNNTNFQIISNASSLGLSRISFNIVREGVEKFKLGETNIYAPISGNTNNQWNWLTSIITQNAGIPSSGFNPQVIISPLISIIFFIIFLYIILRVSKAQSDSLLGTNKANAKLTKSGVRFSDVAGIAEVKEELIEIVDFLKEPKKYVAAGARIPKGVMLYGPPGTGKTLIAKAVAGEANVPFFQTTGSSFEDTFVGVGARRVRELFEKARKSAPAIIFIDEIDSVAKKRGNSLTAVQDQTINQLLSELDGFDTSSGVIVMAATNRLDTLDDAILRPGRFDRQISVNLPDILEREQILRIHSRNKNLSAKVSLEDIARRTAGFSGAQLENVLNEAALLSVRDKATSIHMNHLDEAIDRVIAGPSRPNKVISEREREQVSYHEAGHALIGLYSPGADVVQKITIVARGRAAGYTLQTPERNENILQNKTELISRVRTALGGRAAEELIYGPNEITTGAANDFYKITNIVRAMVASFGMTDVGLTQYIATEGVDNPYRNSYSEQTALAIDIEIEKIIQREYKIVKEMINEHREELELIVQTLLELETILKPQIDYIHQYKQLPPEVIANKNKREASQKQANSSVEEAKVVDDEESIKDKEKDQKSN”: “failed”. “MYGGAGLYKFDKLSDWMVYLDRLSKDKPVEEGWTATVFLCIRQSDKRMIGICNVRHHLNSLGLLNVSGHIGYSIRPDERKKGYAKVQLRLALLEAKKLGIDKVLVTCADWNIGSERTILANGGVYEDSRLDESTGNMMKRYWINVTERNSI”: the protein production result is “failed”. Then “MYHGMNPSNGDGFLEQQQQQQQPQSPQRLLAVILWFQLALCFGPAQLTGGFDDLQVCADPGIPENGFRTPSGGVFFEGSVARFHCQDGFKLKGATKRLCLKHFNGTLGWIPSDNSICVQEDCRIPQIEDAEIHNKTYRHGEKLIITCHEGFKIRYPDLHNMVSLCRDDGTWNNLPICQGCLRPLASSNGYVNISELQTSFPVGTVISYRCFPGFKLDGSAYLECLQNLIWSSSPPRCLALEAQVCPLPPMVSHGDFVCHPRPCERYNHGTVVEFYCDPGYSLTSDYKYITCQYGEWFPSYQVYCIKSEQTWPSTHETLLTTWKIVAFTATSVLLVLLLVILARMFQTKFKAHFPPRGPPRSSSSDPDFVVVDGVPVMLPSYDEAVSGGLSALGPGYMASVGQGCPLPVDDQSPPAYPGSGDTDTGPGESETCDSVSGSSELLQSLYSPPRCQESTHPASDNPDIIASTAEEVASTSPGIDIADEIPLMEEDP”, with “failed”; and “MYIKKIVIGLLFVTLVGCSSSPDTEETKEKILIKTNNYSDLIIFYKNQLKVSEDPYTREKLAQAYLDSGDPDSALFAIQYLNEDDDSRSISSFLIEANAQLECGMLEPALDTVNRVYKLNEDNPEIENLLGVIYASKRDLDKSRHYFNLARKHLYSDITIKNNLAILNIIEGKYDQAVKLLLPIYMSNKNDALVQANLMLAMAKAGDLEFMEKVLSPQFSKQEIERRYSILKNTESHRDDTNLFGAD”, with “failed”. Next, “MYINHAAEMLLCNSSVVVRCRATRGVSESLARPGGVTMHKRLTEETHHSAGSPEQPEIAGLHRELAEARQALETLYAALDNVDAGLLILNEELRAVYSNPVLHVMFRANSAEEIRQNRPLYAEMLAASAQAVAVNLEDYVSRRLAWVQSGDPKPMDLAMTDGTALRCHLAVLPGGGRMLIYSDVTDIVRNAEELERLATTDGMTGVYNRRHFLTLADREWSRARRYERPMSFLMIDIDYFKAINDGFGHQVGDEMIVHLARLARDCKRDCDVLARLGGEEFALLLPETDLAQAEVVAERLRREVAGNALVVASHAIPATVSIGVATALPGMKDVSDLMKAADQALYDAKHAGRNRVICRACHDPAPTLVPALTPRCEAATMR”: “failed”; “MYIPKYFKVTNAEEIWNFVQENSFGTVVTTEQGKPIATHLPLGFNKKDDHYYITGHFAYGNPQWRTFEACEDVLVMFQGPHAYISSSWYSRENVPTWNYQAVHMYGKASMLEKDELAEELTIMLEQKTPTQAFSVLWDKLSPKLLESELKGIVGFKIKVEDIQAAYKLSQN”: “failed”.

With “MYIVIAGGGEMGGELARALEKTHDVVVIDRNPQARERFASWDVKVVVGGATDPDTLREAGVDRADLFVASTDSDEINLLASLLAKGLGAKEAFCFVGKGGYVEVLTDPRTAEILGTRIDRVLWPQRAMAREIVEVILVPWAVDTEVLAGGRLRFVEYRVKEGGEYVHRLLSGEKWPEGVLLAGVVREGTFLSFAHPEFPELILEPGDKLLFVATQKAFSELAAYFTEGPGVRRVMVIGGGNVGFMVAQGLLKRRVEVVIVERNAERCQWLSEELPGALVIQGDGTDIELLEAEGMAEADAVVAVTDHDEKNLLASLLAKQMGVRKVITRVSRSETRRLFEQVGIDLALTPRQAAVREVLDWIGPENVEHIATLEESIEVLEVLVSEGAAPKALRDLVRPDAVPVALERDHRIFLYEEGLGLLPGDRLYLVAAREVADEVLAPFFPE”, the protein production entry is “failed”. Next, “MYIVNSNKSRGSSVERYIVSRLRDKGFAVIRAPASGSKRKDHVPDIIALKSGVIILIEVKSRKNGQKIYIEKEQAEGIREFAKRSGGELFLGVKLPKMLRFIKFDMLRQTEGGNYAIDLETVEKGMELEDLVRYVESKISRTLDSFL”: “not failed”; “MYIVNSYTLAIIFCFITMICWGSWGNTQKLASKNWRYELYYWDYTIGILLFALLLVFTLGSFGDSGRGFLEDIQQVEAAYIASALIGGAIFNASNILLSASVSIAGMAVAFPLGVGLALVLGVFINYFSSPKGDPFWLFTGVVLIVIAIICNGIAAGKNQKAGTNNSKKGIILAAIAGILMSFFYRFVAAAMDLNNFESPTTGMATPYTAFFIFAIGIFLSNFLFNTLVMKRPFVGLPVTYKEYFAGKASTHMVGILGGCIWGLGTALSYIAAGKAGAAISYALGQGAPMIAALWGVFIWKEFTGSSKATNRLLGVMFILFILGLTFIVISGGS”: “failed”. In the case of “MYKLDLPTLMDAFHKVFHVSMLRKCITHQENVISEPPPDLLENMMIVGMLIPNLLGVSSEMVGR”, the protein production entry is “failed”. Next, “MYKLVLIRHGESTWNKENRFTGWVDVDLTEQGNREARQAGQLLKEAGYTFDIAYTSVLKRAIRTLWHVQDQMDLMYVPVVHSWRLNERHYGALSGLNKAETAAKYGDEQVLVWRRSYDTPPPALEPGDERAPYADPRYAKVPREQLPLTECLKDTVARVLPLWNESIAPAVKAGKQVLIAAHGNSLRALIKYLDGISDADIVGLNIPNGVPLVYELDESLTPIRHYYLGDQEAIAKAQAAVAQQGKSAA”: “not failed”; “MYLKARQDELTESTIQSQEYRLEAFEQFCREEGIENLNDLSGRDLYAYRVWRREGNGKGRDEIEPITLRGQLATVRSFLRFAAEVDAVPEDLRTKVPLPTISNAGEVSASTLDPERADVILDYLQMYKYASRVHVIALLLWHTGARMGAIRGLDIDDCELEQDNPGIQFVHRPQTDTPLKNGEKGQRWNAISDHVANVLQDYIDGPREPVFDEHGRRPLVTTPQGRASTSTFRTTMYRVTRPCWRGAECPHDRDPEECEATSNRKASTCPSARSPHDVRSGRVTAYRREDVPRRVVSDRLNASDQILDKHYDRRGEREKSEQRRDYLPEV”: “failed”.
